According to publication PMC8246079 (Chemical Science, 2021):
Read-outs that look alike come from different tables or passages of the source. Non-standard residues stand in square brackets, D forms with d. No end group written: not given here. Lys(Me3) = C[N+](C)(C)CCCC[C@H](N)C(=O)O

Columns and labels:
Assay in all cases: ITC
[1] = biological target: TAF3 PHD domain M900Q/M907Q (the paper's wild-type construct) (UniProt Q5VWG9)
[2] = biological target: TAF3 PHD domain M900Q/M907Q with norleucine in place of M882 (Nle mutant) (UniProt Q5VWG9)
[3] = biological target: TAF3 PHD domain M900Q/M907Q with selenomethionine in place of M882 (SeMet mutant) (UniProt Q5VWG9)
BPTF PHD domain Y23M [4] = biological target: BPTF PHD domain Y23M
[5] = biological target: DIDO1 (death inducer obliterator 1) PHD domain, wild type
BPTF PHD domain Y23M [6] = biological target: BPTF PHD domain Y23M; remark: listed apart in the source
DIDO1 PHD domain M35C = DIDO1 PHD domain M35C (UniProt Q9BTC0)
[7] = biological target: DIDO1 PHD domain with selenomethionine in place of methionine (SeMet mutant) (UniProt Q9BTC0)
TAF3 PHD domain M882A = TAF3 PHD domain M882A (UniProt Q5VWG9)
[8] = biological target: TAF3 PHD domain M900Q/M907Q (the paper's wild-type construct) (UniProt Q5VWG9); remark: listed apart in the source
[9] = biological target: TAF3 PHD domain M900Q/M907Q with norleucine in place of M882 (Nle mutant) (UniProt Q5VWG9); remark: listed apart in the source
[10] = biological target: TAF3 PHD domain M900Q/M907Q with selenomethionine in place of M882 (SeMet mutant) (UniProt Q5VWG9); remark: listed apart in the source
[11] = biological target: T1, DIDO1 (death inducer obliterator 1) PHD domain, wild type (UniProt Q9BTC0 266-325)
T1 sequence: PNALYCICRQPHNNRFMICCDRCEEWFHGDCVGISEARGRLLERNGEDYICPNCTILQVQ

histone H3 tail peptide with tert-butyl norleucine in place of K4me3 (H3K4tBuNle), ARTX… with X = tBuNle
Kd [1]: 10.7 µM | Kd [2]: 13.7 µM | Kd [3]: 8.3 µM

Histone H3 peptide with tert-butyl norleucine in place of K4 (H3K4tBuNle 1-13, with a C-terminal Tyr)
Kd (BPTF PHD domain Y23M [4]): 7.48 µM | Kd [5]: 2.9 µM

ART[Lys(Me3)]QTARKSTGGY [histone H3 tail peptide trimethylated at K4 (H3K4me3), ARTX… with X = Kme3]
Kd (BPTF PHD domain Y23M [6]): 7.5 µM | Kd (DIDO1 PHD domain M35C): 36 µM | Kd [7]: 4.2 µM | Kd (TAF3 PHD domain M882A): 120 µM | Kd [8]: 1.05 µM | Kd [9]: 1.7 µM | Kd [10]: 0.84 µM

ART[Lys(Me3)]QTARKSTGGY [histone H3 tail peptide trimethylated at K4 (H3K4me3), ARTXQTARKSTGGY with X = Kme3]
Kd [11]: 2.28 µM
